From US20180057604A1 (Genentech, published 2018)

T1: cyno TfR extracellular domain (analogous construct to human TfR ecd) (cynomolgus monkey, UniProt Q5RDH6 87-760 (Pongo abelii entry))
T1 construct: also called cynoTfR ecd
T1 chain: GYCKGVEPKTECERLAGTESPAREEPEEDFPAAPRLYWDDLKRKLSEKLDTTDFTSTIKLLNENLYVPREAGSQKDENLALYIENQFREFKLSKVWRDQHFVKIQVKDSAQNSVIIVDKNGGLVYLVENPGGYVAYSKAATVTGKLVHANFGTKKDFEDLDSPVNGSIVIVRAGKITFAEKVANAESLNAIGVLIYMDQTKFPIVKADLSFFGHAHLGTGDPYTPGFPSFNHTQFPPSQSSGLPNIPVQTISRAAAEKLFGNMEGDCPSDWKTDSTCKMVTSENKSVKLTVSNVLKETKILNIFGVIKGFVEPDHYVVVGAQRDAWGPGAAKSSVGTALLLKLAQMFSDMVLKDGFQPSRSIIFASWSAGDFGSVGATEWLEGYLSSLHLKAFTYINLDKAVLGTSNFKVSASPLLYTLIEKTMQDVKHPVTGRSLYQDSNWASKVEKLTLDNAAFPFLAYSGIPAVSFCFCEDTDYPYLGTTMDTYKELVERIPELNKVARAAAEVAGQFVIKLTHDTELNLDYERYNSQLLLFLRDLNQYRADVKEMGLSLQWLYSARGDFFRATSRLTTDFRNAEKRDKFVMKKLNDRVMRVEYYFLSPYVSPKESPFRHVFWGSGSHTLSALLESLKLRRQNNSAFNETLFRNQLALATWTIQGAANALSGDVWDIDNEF


Key:
[1] = target: T2, human TfR extracellular domain with N-terminal His tag (human, UniProt P02786 89-760); assay: ELISA, IgG
T2 construct: Biotinylated in some assays; also called huTfR; HuTfR

[2] = target: T1, cyno TfR extracellular domain …; assay: ELISA, IgG
[3] = target: T2, human TfR extracellular domain with …; assay: SPR SCK 1:1 fit, IgG
Protocol: (§1) Antibody affinities were measured using surface plasmon resonance (“SPR”) (Biacore™, GE Healthcare). Anti-His antibody (Qiagen) was coupled onto four different flow cells of a BIACORE™ CM5 sensor chip (Biacore, Inc., Piscataway, N.J.) at between 6000 and 8000 RU. Immobilization was achieved by random coupling through amino groups using a protocol provided by the manufacturer. 10×HBS-P (Biacore, Inc., Piscataway, N.J.) was diluted in water and served as the dilution and running buffer. Purified human or cyno TfR was captured, followed by a 3-fold dilution series of IgG or Fab that was injected at a flow rate of 30 ml/min using the single cycle kinetics method. Affinity constants were determined using a simple 1:1 Langmuir binding model or using a steady state model when kₒₙ or koff was beyond the detection limit. The equilibrium dissociation constant (KD) was calculated as the ratio of association rate constant (kₒₙ) and dissociation rate constant (koff).
(§2) These variants were screened as IgG by ELISA and SPR to identify positions important for binding to human and cyno TfR; the monovalent affinity of selected variants as Fab was also determined. […] Plates were washed with PBS/0.05% Tween 20 and blocked using Superblock blocking buffer in PBS (Thermo Scientific, Hudson, N.H.). Supernatants containing expressed IgG were diluted serially 1:5 and added to the plate for 1 h. […] Plates were washed with PBS/0.05% Tween 20 and 1:1000 diluted HRP-Goat-anti kappa (Southern Biotech) was added the plate and incubated for 1 h at room temperature. Plates were washed with PBS/0.05% Tween 20 and detected using TMB substrate (BioFX Laboratories, Owings Mills). Binding was also assessed by SPR, as described above.

[4] = target: T2, human TfR extracellular domain with …; assay: SPR steady state, IgG
Protocol: as §1, §2

[5] = target: T2, human TfR extracellular domain with …; assay: SPR, Fab
Protocol: as §1, §2

[6] = target: T1, cyno TfR extracellular domain …; assay: SPR, TfR captured by anti-His, Fab injected
Protocol: as §1
In both cases, the SPR experiments were performed as described above.

human BACE1 ECD [7] = target: T3, human BACE1 ECD; assay: Octet, pH 5.0
T3 construct: analyte of the Octet assay (200 nM) and enzyme of the first short substrate assay; also called human BACE1 extracellular domain
Protocol: (§3) Anti-BACE1 antibodies were loaded onto anti-human capture (AHC) sensors (tips) followed by 60 seconds baseline in assay buffer. […] Tips were transferred to assay buffer for 5 minutes, 30 minutes, or 120 minutes depending on the off-rate, for off-rate measurement. Assay buffer was either PBS+0.1% BSA, pH 7.5; or PBS+0.1% BSA, pH 5.0. Kinetics were analyzed using a 1:1 binding model.

murine BACE1 ECD [8] = target: T4, murine BACE1 ECD; assay: Octet, pH 5.0
T4 construct: analyte of the Octet assay (200 nM) and enzyme of the first short substrate assay
Protocol: as §3

human BACE1 ECD [9] = target: T3, human BACE1 ECD; assay: Octet, pH 7.5
Protocol: as §3

murine BACE1 ECD [10] = target: T4, murine BACE1 ECD; assay: Octet, pH 7.5
Protocol: as §3

[11] = target: BACE1 in primary mouse cortical neurons (mouse, UniProt P56818 46-501); assay: cell-based or functional assay
Chain of BACE1 in primary mouse cortical neurons (P56818 46-501): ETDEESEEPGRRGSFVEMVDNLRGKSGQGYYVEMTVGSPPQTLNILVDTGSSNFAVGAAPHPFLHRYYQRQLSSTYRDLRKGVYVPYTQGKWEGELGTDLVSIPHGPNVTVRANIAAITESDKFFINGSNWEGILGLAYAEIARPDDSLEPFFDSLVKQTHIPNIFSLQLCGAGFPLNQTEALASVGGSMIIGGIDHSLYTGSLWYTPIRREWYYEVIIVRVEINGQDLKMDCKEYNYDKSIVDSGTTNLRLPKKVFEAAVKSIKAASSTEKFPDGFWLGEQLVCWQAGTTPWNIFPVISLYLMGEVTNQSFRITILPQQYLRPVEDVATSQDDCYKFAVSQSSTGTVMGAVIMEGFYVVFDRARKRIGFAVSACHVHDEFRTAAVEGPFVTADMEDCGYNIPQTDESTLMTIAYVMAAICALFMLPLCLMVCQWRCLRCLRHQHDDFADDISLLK

T3 sequence (single chain, as listed by the source limits assumed): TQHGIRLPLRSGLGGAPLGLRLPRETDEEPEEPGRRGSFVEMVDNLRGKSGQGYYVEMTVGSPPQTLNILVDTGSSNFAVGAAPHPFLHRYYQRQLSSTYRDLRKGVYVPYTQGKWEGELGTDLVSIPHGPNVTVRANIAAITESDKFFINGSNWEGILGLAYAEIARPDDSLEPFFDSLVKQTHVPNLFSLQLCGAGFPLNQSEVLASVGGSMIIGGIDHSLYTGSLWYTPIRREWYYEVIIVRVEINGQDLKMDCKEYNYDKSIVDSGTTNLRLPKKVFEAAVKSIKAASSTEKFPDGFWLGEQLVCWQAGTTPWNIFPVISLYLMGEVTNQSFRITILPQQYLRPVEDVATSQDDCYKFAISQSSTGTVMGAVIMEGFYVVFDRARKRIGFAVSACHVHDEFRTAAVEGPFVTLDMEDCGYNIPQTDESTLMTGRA
T2 sequence (P02786 89-760 G142S): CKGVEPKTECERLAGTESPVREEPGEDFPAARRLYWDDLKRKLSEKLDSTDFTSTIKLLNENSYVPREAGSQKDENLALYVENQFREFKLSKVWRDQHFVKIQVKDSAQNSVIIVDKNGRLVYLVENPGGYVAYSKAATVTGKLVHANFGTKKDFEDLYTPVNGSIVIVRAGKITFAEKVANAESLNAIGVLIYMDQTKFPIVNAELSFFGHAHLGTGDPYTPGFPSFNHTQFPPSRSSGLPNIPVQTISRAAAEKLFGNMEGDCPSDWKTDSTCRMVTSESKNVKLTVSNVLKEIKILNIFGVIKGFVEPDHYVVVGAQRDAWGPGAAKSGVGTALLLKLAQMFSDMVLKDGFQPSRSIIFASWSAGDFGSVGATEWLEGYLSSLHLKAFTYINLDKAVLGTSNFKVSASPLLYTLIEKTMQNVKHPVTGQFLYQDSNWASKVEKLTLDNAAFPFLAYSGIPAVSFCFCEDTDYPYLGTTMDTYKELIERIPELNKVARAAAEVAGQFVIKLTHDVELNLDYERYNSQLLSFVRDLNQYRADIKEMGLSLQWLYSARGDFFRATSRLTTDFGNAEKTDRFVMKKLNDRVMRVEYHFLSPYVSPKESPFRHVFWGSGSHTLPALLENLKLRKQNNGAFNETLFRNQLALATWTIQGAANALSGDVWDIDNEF
T4 sequence (single chain, as listed by the source limits assumed): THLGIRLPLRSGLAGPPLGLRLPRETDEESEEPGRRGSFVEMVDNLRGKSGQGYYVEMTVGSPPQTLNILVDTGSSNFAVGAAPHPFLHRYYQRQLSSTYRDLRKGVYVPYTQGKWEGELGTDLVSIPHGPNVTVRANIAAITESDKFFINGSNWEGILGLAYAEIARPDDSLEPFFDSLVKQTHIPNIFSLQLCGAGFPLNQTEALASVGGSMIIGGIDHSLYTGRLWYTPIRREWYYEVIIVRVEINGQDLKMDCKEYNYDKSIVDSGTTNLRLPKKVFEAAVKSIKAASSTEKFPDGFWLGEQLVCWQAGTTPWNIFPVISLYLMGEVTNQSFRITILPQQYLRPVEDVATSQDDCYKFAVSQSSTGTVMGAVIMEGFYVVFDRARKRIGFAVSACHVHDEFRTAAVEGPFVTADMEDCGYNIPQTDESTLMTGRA

Row | EC50 [1] [µg/mL] | EC50 [2] [µg/mL] | Kd [3] [nM] | Kd [4] [nM] | Kd [5] [nM] | Kd [6] [nM] | Kd (human BACE1 ECD [7]) [nM] | Kd (murine BACE1 ECD [8]) [nM] | Kd (human BACE1 ECD [9]) [nM] | Kd (murine BACE1 ECD [10]) [nM] | IC50, Abeta x-40 in mouse cortical neurons [11] [nM] | maximal % inhibition of Abeta x-40 [11] [%] | Binder
1 | 0.0458 | 0.953 | 167 | 228 | – | – | – | – | – | – | – | – | F91A (antibody, V domains shown, also called 15G11.v5 F91A (CDR-L3) IgG) VH: EVQLVQSGAEVKKPGASVKVSCKASGYTFTSYWMHWVRQAPGQRLEWIGEINPTNGRTNYIEKFKSRATLTVDKSASTAYMELSSLRSEDTAVYYCARGTRAYHYWGQGTMVTVSS VL: DIQMTQSPSSLSASVGDRVTITCRASDNLYSNLAWYQQKPGKSPKLLVYDATNLADGVPSRFSGSGSGTDYTLTISSLQPEDFATYYCQHAWGTPLTFGQGTKVEIK
2 | – | – | – | – | 280 | – | – | – | – | – | – | – | W92A (Fab, V domains shown, also called 15G11.v5 W92A (CDR-L3) Fab) VH: EVQLVQSGAEVKKPGASVKVSCKASGYTFTSYWMHWVRQAPGQRLEWIGEINPTNGRTNYIEKFKSRATLTVDKSASTAYMELSSLRSEDTAVYYCARGTRAYHYWGQGTMVTVSS VL: DIQMTQSPSSLSASVGDRVTITCRASDNLYSNLAWYQQKPGKSPKLLVYDATNLADGVPSRFSGSGSGTDYTLTISSLQPEDFATYYCQHFAGTPLTFGQGTKVEIK
3 | – | – | – | – | 383 | – | – | – | – | – | – | – | F91A (Fab, V domains shown, also called 15G11.v5 F91A (CDR-L3) Fab) VH: EVQLVQSGAEVKKPGASVKVSCKASGYTFTSYWMHWVRQAPGQRLEWIGEINPTNGRTNYIEKFKSRATLTVDKSASTAYMELSSLRSEDTAVYYCARGTRAYHYWGQGTMVTVSS VL: DIQMTQSPSSLSASVGDRVTITCRASDNLYSNLAWYQQKPGKSPKLLVYDATNLADGVPSRFSGSGSGTDYTLTISSLQPEDFATYYCQHAWGTPLTFGQGTKVEIK
4 | – | – | – | – | – | 48 | – | – | – | – | – | – | Hu15G11.HC32A Fab (Fab, V domains shown, Fab) VH: EVQLVQSGAEVKKPGASVKVSCKASGYTFTSAWMHWVRQAPGQRLEWIGEINPTNGRTNYIEKFKSRATLTVDKSASTAYMELSSLRSEDTAVYYCARGTRAYHYWGQGTMVTVSS VL: DIQMTQSPSSLSASVGDRVTITCRASDNLYSNLAWYQQKPGKSPKLLVYDATNLADGVPSRFSGSGSGTDYTLTISSLQPEDFATYYCQHFWGTPLTFGQGTKVEIK
5 | 0.274 | 3.38 | 173 | 433 | – | – | – | – | – | – | – | – | T96A (antibody, V domains shown, also called 15G11.v5 T96A (CDR-H3) IgG; copies: 2 + 2) VH: EVQLVQSGAEVKKPGASVKVSCKASGYTFTSYWMHWVRQAPGQRLEWIGEINPTNGRTNYIEKFKSRATLTVDKSASTAYMELSSLRSEDTAVYYCARGARAYHYWGQGTMVTVSS VL: DIQMTQSPSSLSASVGDRVTITCRASDNLYSNLAWYQQKPGKSPKLLVYDATNLADGVPSRFSGSGSGTDYTLTISSLQPEDFATYYCQHFWGTPLTFGQGTKVEIK
6 | 0.0118 | – | 31 | 123 | – | – | – | – | – | – | – | – | W92A (antibody, V domains shown, also called 15G11.v5 W92A (CDR-L3) IgG; 15G11.W92A) VH: EVQLVQSGAEVKKPGASVKVSCKASGYTFTSYWMHWVRQAPGQRLEWIGEINPTNGRTNYIEKFKSRATLTVDKSASTAYMELSSLRSEDTAVYYCARGTRAYHYWGQGTMVTVSS VL: DIQMTQSPSSLSASVGDRVTITCRASDNLYSNLAWYQQKPGKSPKLLVYDATNLADGVPSRFSGSGSGTDYTLTISSLQPEDFATYYCQHFAGTPLTFGQGTKVEIK
7 | – | – | – | – | – | – | < 0.13 | < 0.17 | < 0.14 | < 0.15 | 0.45 | 68 | 6307 (antibody, V domains shown, anti-BACE1 IgG) VH: QLQLQESGPGLVKPSETLSLTCTVSGGSISWSSYYWSWIRQPPGKGLEWIGSIYRSGRTYYNPSLKGRVTISVDTSKNQFSLKLSSVTAADTAVYYCARVGHGINYFDLWGRGTLVTVSS VL: EIVLTQSPATLSLSPGERATLSCRASQSVSSYLAWYQQKPGQAPRLLIYDASNRATGIPARFSGSGSGTDFTLTISSLEPEDFAVYYCQQSIVWPPRTFGGGTKVEIK
8 | – | – | – | – | – | – | 0.35 | 0.37 | 0.34 | 0.32 | 0.3 | 60 | 6309 (antibody, V domains shown, anti-BACE1 IgG) VH: QLQLQESGPGLVKPSETLSLTCTVSGGSISWSSYYWSWIRQPPGKGLEWIGSIYRSGRTYYNPSLKSRVTISVDTSKNQFSLKLSSVTAADTAVYYCARVGHGINYFDLWGRGTLVTVSS VL: EIVLTQSPATLSLSPGERATLSCRASQSVSSYLAWYQQKPGQAPRLLIYDASNRATGIPARFSGSGSGTDFTLTISSLEPEDFAVYYCQQSITWPPRTFGGGTKVEIK
9 | – | – | – | – | – | – | < 0.14 | < 0.17 | < 0.14 | < 0.15 | 0.68 | 60 | 6308 (antibody, V domains shown, anti-BACE1 IgG) VH: QLQLQESGPGLVKPSETLSLTCTVSGGSISWSSYYWSWIRQPPGKGLEWIGSIYRSGRTYYNPSLKSRVTISVDTSKNQFSLKLSSVTAADTAVYYCARVGHGINYFDLWGRGTLVTVSS VL: EIVLTQSPATLSLSPGERATLSCRASQSVSSYLAWYQQKPGQAPRLLIYDASKRATGIPARFSGSGSGTDFTLTISSLEPEDFAVYYCQQSLVWPPRTFGGGTKVEIK
10 | – | – | – | – | – | – | < 0.21 | < 0.24 | 0.41 | 0.27 | 2.78 | 67 | 6313 (antibody, V domains shown, anti-BACE1 IgG) VH: QLQLQESGPGLVKPSETLSLTCTVSGGSISRGSYYWGWIRQPPGKGLEWIGMIYYSGSTWYNPSLKSRVTISVDTSKNQFSLKLSSVTAADTAVYYCARVGHGVSYFDLWGRGTLVTVSS VL: EIVLTQSPATLSLSPGERATLSCRASQSVSSYLAWYQQKPGQAPRLLIYDASNRATGIPARFSGSGSGTDFTLTISSLEPEDFAVYYCQQAYVWPPRTFGGGTKVEIK
11 | – | – | – | – | – | – | < 0.22 | < 0.26 | 0.38 | 0.33 | 3.38 | 71 | 6314 (antibody, V domains shown, anti-BACE1 IgG) VH: QLQLQESGPGLVKPSETLSLTCTVSGGSISRGSYYWGWIRQPPGKGLEWIGMIYYSGSTWYNPSLKSRVTISVDTSKNQFSLKLSSVTAADTAVYYCARVGHGVSYFDLWGRGTLVTVSS VL: EIVLTQSPATLSLSPGERATLSCRASQSVSSYLAWYQQKPGQAPRLLIYDASNRATGIPARFSGSGSGTDFTLTISSLEPEDFAVYYCQQSIVWPPRTFGGGTKVEIK
12 | – | – | – | – | – | – | 0.2 | 0.21 | 0.25 | 0.24 | 0.15 | 63 | 6311 (antibody, V domains shown, anti-BACE1 IgG) VH: QLQLQESGPGLVKPSETLSLTCTVSGGSISWSSYYWSWIRQPPGKGLEWIGSIYRSGRTYYNPSLKSRVTISVDTSKNQFSLKLSSVTAADTAVYYCARVGHGINYFDLWGRGTLVTVSS VL: EIVLTQSPATLSLSPGERATLSCRASQSVSSYLAWYQQKPGQAPRLLIYDASNRATGIPARFSGSGSGTDFTLTISSLEPEDFAVYYCQQSLTWPPRTFGGGTKVEIK
13 | – | – | – | – | – | – | < 0.21 | < 0.25 | < 0.25 | < 0.26 | – | 73 | 6315 (antibody, V domains shown, anti-BACE1 IgG) VH: QLQLQESGPGLVKPSETLSLTCTVSGGSISRGSYYWGWIRQPPGKGLEWIGMIYYSGSTWYNPSLKSRVTISVDTSKNQFSLKLSSVTAADTAVYYCARVGHGVSYFDLWGRGTLVTVSS VL: EIVLTQSPATLSLSPGERATLSCRASQSVSSYLAWYQQKPGQAPRLLIYDASKRATGIPARFSGSGSGTDFTLTISSLEPEDFAVYYCQQSLVWPPRTFGGGAKVEIK
